# Laboratory results as given in publication PMC6582412.
# Key:
# [1] = system: LrAgo (Limnothrix rosea IAM M-220); assay: competition
# [2] = system: LrAgo (Limnothrix rosea IAM M-220); assay: double-filter binding; conditions: 5'-phosphate
Sequence,Kd ([1]; 5'-hydroxyl) [nM],Kd ([1]; 5'-phosphate) [nM],Kd [2] [nM]
GTTAGACTTTAAGTCAAT [18 nt 5'-OH guide DNA (G-guide)],0.0456,,
GTTAGACTTTAAGTCAAT [18 nt 5'-P guide DNA (G-guide)],,0.0333,0.0348
